Numbering of substitutions follows the chain as printed.

To fix the notation:
B1: anti-TIM-3 monoclonal antibody 16-K5-A (antibody, V domains shown)
VH: QVQLQQSGAELVKPGASVKLSCKASGYTFTSSDINWVRQRPEQGLEWIGWIFPGDGSTKYNEKFKGKATLTTDKSSSTAYMQLSRLTSEDSAVYFCARGLDYWGQGTTLTVSS
VL: DIKMTQSPSSMYASLGERVTITCKASQDINSYLGWFQQKPGKSPKTLIYRADRLVDGVPSRFSGSGSGQDYSLTISSLEYEDMGIYYCLQYDEFPLTFGAGTKLELK
notes: Mouse hybridoma mAb (parent of the humanized H1L1, H2L1, H5L5, H7L5); captured on anti-mouse Fc biosensors; also called mouse anti-TIM-3 mAb 16-K5-A
B2: anti-TIM-3 monoclonal antibody 20-L10-A (antibody, V domains shown)
VH: QIQLVQSGPELKKPGETVKISCKASGYTFTNYGMNWVKQAPGKVLKWMVWINTYTGEPTYADDFKGRFAFSLETSASTAYLQINNLKNEDTATYFCARDAMDYWGQGTSVTVSS
VL: DVVMTQTPLSLPVSLGDQASISCRSSQSLVHSNGNTYLHWYLQKPGQSPKLLIYKVSNRFSGVPDRFSGSGSGTDFTLKISRVEAEDLGVYFCSQNTHVPWTFGGGTKLEIK
notes: Mouse hybridoma mAb; captured on anti-mouse Fc biosensors
B3: anti-TIM-3 monoclonal antibody 8-F3-A (antibody, V domains shown)
VH: B2 VH with V44G, V49A, A100L, M101E, S109T, V110L
VL: B2 VL with N96T
notes: as for B2
B4: anti-TIM-3 monoclonal antibody 15-L23-A (antibody, V domains shown)
VH: B2 VH with K23R, V44G, Y60F, N84I, A100T
VL: B2 VL with V2I
notes: as for B2
B5: anti-TIM-3 monoclonal antibody 6-I13-A (antibody, V domains shown)
VH: EVQLQQSGPELEKPGASVKISCKASGYSFTGYNMNWVKQSNGKSLEWIGNIDPYYGVTSYNQKFKGKATLTVDKSSSTAYMQLKSLTSEDSAVYYCASYSLTYDGYYPFAYWGQGTLVTVSA
VL: DIVLTQSPASLAVSLGQRATISCRASKSVSTSGYSYMHWYQQKPGQPPKLLIYLASNLESGVPARFSGSGSGTDFTLNIHPVEEEDAATYYCQHSRELPYTFGGGTKLEIK
notes: as for B2
B6: anti-TIM-3 monoclonal antibody 10-O15-A (antibody, V domains shown)
VH: QVQLQQSGADLVRPGASVKLSCKALGYTFTDYEMHWVKQTPVHGLEWIGAIHPGSGGTAYNQKFKGKATLTADKSSSTAYMELSSLTSEDSAVYFCSRSYYRYTGYFDVWGAGTTVTVSS
VL: B5 VL with T31A, I79V, Y100F, G104S
notes: as for B2
B7: anti-TIM-3 monoclonal antibody 16-J5-A (antibody, V domains shown)
VH: DVQLVESGGGLVQPGGSRKLSCAASGFTFSSFGMNWVRQAPEKGLEWVAYISSGSSTIYYADTVKGRFTISRDNPKNTLFLQMTSLRSEDTAMYYCARWGRWADFDYWGQGTTLTVSS
VL: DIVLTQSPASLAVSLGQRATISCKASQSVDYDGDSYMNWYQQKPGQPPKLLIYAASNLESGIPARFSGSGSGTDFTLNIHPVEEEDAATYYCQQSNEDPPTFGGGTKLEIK
notes: as for B2
B8: anti-TIM-3 monoclonal antibody 5-K4-A (antibody, V domains shown)
VH: EVQLQQSGPELVKTGASVKISCKASGYSFTAYYIHWVKQSHGKSLEWIGHISCFNGATSYNQKFKGKATFTVDTSSSTAYMQFNSLTSEDSAVYYCARRGDFDRPEFAYWGQGTLVTVSA
VL: DIVLTQSPASLAVSLGQRATISCRASESVEYYGTSLMQWYQQKPGQPPKLLIYAASNVESGVPARFSGSGSGTDFSLNIHPVEEDDIAMYFCQQSRKVPWTFGGGTKLEIK
notes: as for B2
B9: anti-TIM-3 monoclonal antibody 1-A19-A (antibody, V domains shown)
VH: EVQLQQFGAELVKPGASVKISCKASGYTFTDYNMDWVKQSHGKSLEWIGDIDPNYDITTYNQKFKGKATLTVDKSSSTAYMELRSLTSEDTAVYYCARGGHYRYDGYYALDYWGQGTSVTVSS
VL: DIVLTQSPASLAVSLGQRATISCKASQSVDYDGDSYMNWYQQKPGQPPKLLIYAASNLESGIPARFSGSGSGTDFTLNIHPVEEEDAATYYCQQSNEDPFTFGSGTKLEIK
notes: as for B2
B10: anti-TIM-3 monoclonal antibody 18-N1-A (antibody, V domains shown)
VH: QVQLQQPGAELVRPGVSVKLSCKASGYTFTSYWMHWIKQRPEQGLERIGEINPSNGGTNYNEKFKNKATLTVDKSSSTAYMQLSSLTSEDSAVYYCARSYYTYDAIDYWGQGTSVTVSS
VL: DIVMSQSPSSLAVSAGEKVTMSCKSSQSLLNSRTRKNYLAWYQQKPGQSPKLLIYWASTRESGVPDRFTGSGSGTDFTLTISSVQAEDLAVYYCKQSYNLYTFGGGTKLEIK
notes: as for B2
B11: anti-TIM-3 monoclonal antibody 16-L3-A (antibody, V domains shown)
VH: QVQLQQSGPELVKPGASVKMSCKASGYTFTSYYIHWVKQRPGQGLEWIGWIYPGDGSTKYNEKFKGKTTLTADKSSSTAYMLLSSLTSEDSAIYFCATDRYDVAYWGQGTLVTVSA
VL: EIVLTQSPALMAASPGEKVTITCSVSSSISSSNLHWYQQKSETSPKPWIYGTSNLASGVPVRFSGSGSGTSYSLTISSMEAEDAATYYCQQWSSYPLTFGAGTKLELK
notes: as for B2
B12: anti-TIM-3 monoclonal antibody 10-M21-A (antibody, V domains shown)
VH: DVQLQESGPTLVKPSQTLSLTCSVTGDSITSGYWNWIRKFPGNKLEYMGYISYSGSTYYNPSLKSRISIIRDTSKNQYYLQLNSVTTEDTATYYCVSGNHFDYWGQGTTLTVSS
VL: DIQMTQSPSSLSASLGGKVTITCKASQDINRYIAWYQHKPGKGPRLLIHYTSTLQPGIPSRFSGSGSGRDYSFSISNLEPEDIATYYCLQYDNLLFTFGSGTKLEIK
notes: as for B2
B13: Chimeric (antibody, V domains shown)
VH: B1 VH
VL: B1 VL
notes: detected with anti-human IgG-HRP; also called chimeric version of anti-TIM-3 mAb 16-K5-A
B14: H1L1 (antibody, V domains shown)
VH: EVQLVESGGGLVQPGGSLRLSCAASGYTFTSSDINWVRQAPGKGLVWIGWIFPGDGSTKYTPSLKDQATLSTDKAKNTAYLQMNSLRAEDTAVYFCARGLDYWGQGTLVTVSS
VL: DIQMTQSPSSLSASVGDRVTITCKASQDINSYLGWFQQKPGKAPKTLIYRADRLVDGVPSRFSGSGSGQDYTFTISSLQPEDIATYYCLQYDEFPLTFGQGTKLEIK
notes: also called humanized version of anti-TIM-3 mAb 16-K5-A, VH H1 with VL L1
B15: H2L1 (antibody, V domains shown)
VH: B14 VH with K74L
VL: B14 VL
notes: also called humanized version of anti-TIM-3 mAb 16-K5-A, VH H2 with VL L1
B16: H5L5 (antibody, V domains shown)
VH: QVQLQESGPGLVKPSETLSLTCTASGYTFTSSDINWVRQPPGKGLEWIGWIFPGDGSTKYNPSLKSRATLSTDKSKNQASLNLDSVSAADTAIYFCARGLDYWGKGSTVTVSS
VL: B14 VL with Q100P, L104V, E105D
notes: also called humanized version of anti-TIM-3 mAb 16-K5-A, VH H5 with VL L5
B17: H7L5 (antibody, V domains shown)
VH: B16 VH with T23K, D84S, S87T, I93V, S107T
VL: B14 VL with Q100P, L104V, E105D
notes: also called humanized version of anti-TIM-3 mAb 16-K5-A, VH H7 with VL L5
B18: 12-M11-A (antibody, V domains shown)
VH: QVQLQQSGAELAKPGASVKMSCKASGYFTSYWMHWVKQRPGQGLEWIGYINPITGYTEYNQKFKDKATLTADKSSSTAYMQLSRLTSEDSAVYYCARGVENFDYLYAMDYWGQGASVTVSS
VL: QIVLTQSPAIMSASPGEKVTMTCSASSSISYMHWYQQKPGTSPKRWIYDTSKLASGVPTRFNGSGSGTSYSLTISSMEAEDAATYYCHQRSSYRTFGGGTKLEIK
notes: also called anti-TIM-3 monoclonal antibody 12-M11-A
B19: 7-P15-A (antibody, V domains shown)
VH: B2 VH with V44G, V49G, A100L, S109T, V110L
VL: B2 VL with S81T, N96S, T97I, W101Y
notes: also called anti-TIM-3 monoclonal antibody 7-P15-A
B20: 6-H6-A (antibody, V domains shown)
VH: B9 VH with I57S, L110M
VL: DIVLTQSPASSAVSLGQRATFSCRASQSVSTSSYSFMHWYQQKPGQPPKLLIKYASNLESGVPARFSGSGSGTDFTLNIHPVEEEDTATYYCQHSWEIPPTFGGGTNLEIK
notes: also called anti-TIM-3 monoclonal antibody 6-H6-A
B21: 7-N2-A (antibody, V domains shown)
VH: QVQLKESGPGLVAPSQSLSITCTVSGFSLTGFGVNWVRQPPGKGLEWLGMIWGDGSTDYNSTLKSRLSISKDNSKSQVFLKMNSLQTDDTARYYCARDYYGYVGNAMDYWGQGTSVTVSS
VL: DIVMSQSPSSLAVSAGEKVTMSCKSSQSLLNSRTRKNYLAWYQQKPGQSPKLLIYWASTRESGVPDRFTGSGSGTDFTLTISSVQAEDLAVYYCKQSYNHMYTFGGGTKLEIK
notes: also called anti-TIM-3 monoclonal antibody 7-N2-A

The target in the first assay is T1, human T-cell immunoglobulin and mucin-domain containing molecule 3 (TIM-3) (human, UniProt Q8TDQ0 22-200, limits assumed).
T1 construct: also called Human TIM-3
Briefly: BLI (OCTET Red96), mAb on anti-mouse Fc biosensor, antigen in solution, 1:1 model.
Method: Binding experiments were performed on OCTET Red96 at 25° C. Antibodies were loaded onto Anti-Mouse Fc (AMC) biosensors. Loaded sensors were dipped into serial dilutions of antigen. Kinetic constants were calculated using a monovalent (1:1) model. The assay buffer was PBS supplemented with 0.1% BSA, 500 mM NaCl, 0.02% Tween-20, pH 7.2.
The molecule B1 returned a Kd of 7.9 nM.

Turning to B2, the Kd came to 10 nM. Molecule B3 registered a Kd of 1.6 nM. For B4, the Kd worked out at 13 nM. As to B5, the affinity, expressed as Kd, was 9.9 nM. Take B6: binding was characterised by a dissociation constant (Kd) of 3.1 nM. On the same count and under the same terms, for B7 the value was 2.7 nM; for B8, 1.8 nM; for B9, 2.2 nM. With B10, the Kd amounted to 1.1 nM. Same read-out and setting: for B11 the value was 14 nM. The same measure, in the same setting: the result for B12 reads 16 nM.

A further assay addresses T1, human T-cell immunoglobulin and …. Briefly: ELISA, recombinant human TIM-3(ECD)-6His coated on the plate, anti-human IgG-HRP detection, absorbance at 450 nm.
Method: (§1) Recombinant human TIM-3(ECD)-6His in carbonate coating buffer was coated on an ELISA plate at 4° C. overnight.
Take B13: the “EC50 (read off the curve)” value is approximately 0.09 nM. The same measure, in the same setting: the result for B14 reads approximately 0.07 nM; that for B15, approximately 0.09 nM.

The next assay has the same target. Described as above. The source holds these as a separate data set.
Method: as §1
As for B13, the “EC50 (read off the curve)” value was approximately 0.2 nM. B16: the “EC50 (read off the curve)” value is approximately 0.2 nM.

For B17, the “EC50 (read off the curve)” value was approximately 0.1 nM.

Another assay shares this target. Description: competition ELISA: pre-equilibrated mixture of mAb and human TIM3(ECD)-huFc on plate-coated phosphatidylserine (PtdSer, a lipid), anti-huFc-HRP detection, % inhibition.
Method: (§2) ELISA plates were coated with PtdSer or PtdChol, washed and incubated with a pre-equilibrated mixture of purified antibodies at various concentrations and TIM3(ECD)-huFc. The plates were washed and then the signal was detected by incubation with HRP-coupled anti-huFc secondary antibody and then a HRP substrate. TIM-3 binding to PtdSer was used as 100% signal and TIM-3 binding to PtdChol as zero (background) to calculate percent of inhibition by a given mAb.
(§3) To determine the effect of anti-TIM-3 antibodies on the interaction of TIM-3 with phosphatidylserine (PtdSer), 384-well ELISA plates were coated with PtdSer or phosphatidylcholine (PtdChol) at room temperature. The wells were washed using PBS supplemented with 0.1% Tween-20 and then blocked using PBS supplemented with 2% bovine serum albumin (BSA). […] The plates were washed and then incubated with HRP-coupled anti-huFc secondary antibody. Plates were washed, incubated with an HRP substrate, and read using a POLARstar Omega Microplate (BMG LABTECH). The assay was performed in triplicate.
With B8, the “IC50 (read off the curve)” value was approximately 6 nM. On the same count and under the same terms, the result for B18 reads approximately 7 nM.

Another assay shares this target. Described as above. The source holds these as a separate data set.
Method: as §2, §3
For the molecule B19, the binding result is listed as “binds”.

The target is the same in the next assay. The assay is described as above. This is another data set of the same source.
Method: as §2, §3
For B5, the “IC50 (read off the curve)” value is approximately 4 nM.

On to B20, for which the binding result was “binds”. As for B21, the “IC50 (read off the curve)” value was approximately 7 nM.

Values taken from patent publication US20210032330A1 (PHANES THERAPEUTICS, published 2021).
